Results taken from publication PMC11053944, “FRET Assays for the Identification of C. albicans HSP90-Sba1 and Human HSP90α-p23 Binding Inhibitors” (Pharmaceuticals, 2024).
“Also recorded” adds a separate entry of the source.

B1: Aha1: C. albicans co-chaperone Aha1, activator of HSP90 ATPase (A0A1D8PU72); yeast Aha1 in cited values (protein)
chain: MVVNNPNNWHWVDKNCLPWSVDYFKDKLINLKVTDGTNNVHISEVSSVEGDVDVSQRKGKVISLFDIKIVLTFKGNTAKDDNVSGSITIPELTYDSEVDGLQFDISIYNETAENSGITDLIKKQLIPQLRTALMKFGPDLIEINSKDIQLSQDKVTSTYTKANQSSTIAATADHPKSESKPVEKKTETHSTSNIARKVVSEKDSSTVPKYNTTTLHLEPSFNTSAEQIYLTLLDEARIGAWTRSAPVIEKFPPKEGSEFKFFGGSVSGKFLKLVPNEQIVELWRLDDWKAGHFAQLDMKLVQSSGETKLVVKFSGIPIGEEERVKNNFEERYIRSIKITFGFGAVL
modifications: left off: His6, N-terminal, state not stated
notes: yeast Aha1 in cited values
B2: Sba1: unlabeled C. albicans HSP90 co-chaperone Sba1 (UniProtKB A0A1D8PQ94), His6-tagged; yeast Sba1 in cited values (protein)
chain: MSSTTTQTPTVLWAQRSSEDDAAKNIIYLTIQISDPIDLKIDLKSDHLIIDSKSNDSVYSSIDYHLQIDFFKEIDPDQSKINTENGSHIFMILRKKDQQEEYWPRLTKEKLKYHYIKTDFDKWVDEDEQDEVKDDPNDFGGPGGPGGAMDFSQMLSGMGGLGGAGGSGGPGGVDLSALASQLGQAGGAGGAAGLDGEEGEEGEAEAKEAQEESNTTATEKE
modifications: left off: His6, N-terminal, state not stated
notes: unlabeled C. albicans HSP90 co-chaperone Sba1 (UniProtKB A0A1D8PQ94), His6-tagged; yeast Sba1 in cited values

How the values were obtained:
C. albicans HSP90 = biological target: T1, C. albicans HSP90 (Candida albicans, UniProt P46598); experiment: ADP-Glo assay, HSP90 ATPase activity; type: biochemical; settings: HSP90 2.5 µM, 1 mM ATP, 1 h 30 °C; Aha1 alone: up to, at 8-fold molar excess; co-incubation: 20 µM each
T1 construct: made in house; host or cells: E. coli BL21(DE3)
T1 sequence (P46598 whole entry): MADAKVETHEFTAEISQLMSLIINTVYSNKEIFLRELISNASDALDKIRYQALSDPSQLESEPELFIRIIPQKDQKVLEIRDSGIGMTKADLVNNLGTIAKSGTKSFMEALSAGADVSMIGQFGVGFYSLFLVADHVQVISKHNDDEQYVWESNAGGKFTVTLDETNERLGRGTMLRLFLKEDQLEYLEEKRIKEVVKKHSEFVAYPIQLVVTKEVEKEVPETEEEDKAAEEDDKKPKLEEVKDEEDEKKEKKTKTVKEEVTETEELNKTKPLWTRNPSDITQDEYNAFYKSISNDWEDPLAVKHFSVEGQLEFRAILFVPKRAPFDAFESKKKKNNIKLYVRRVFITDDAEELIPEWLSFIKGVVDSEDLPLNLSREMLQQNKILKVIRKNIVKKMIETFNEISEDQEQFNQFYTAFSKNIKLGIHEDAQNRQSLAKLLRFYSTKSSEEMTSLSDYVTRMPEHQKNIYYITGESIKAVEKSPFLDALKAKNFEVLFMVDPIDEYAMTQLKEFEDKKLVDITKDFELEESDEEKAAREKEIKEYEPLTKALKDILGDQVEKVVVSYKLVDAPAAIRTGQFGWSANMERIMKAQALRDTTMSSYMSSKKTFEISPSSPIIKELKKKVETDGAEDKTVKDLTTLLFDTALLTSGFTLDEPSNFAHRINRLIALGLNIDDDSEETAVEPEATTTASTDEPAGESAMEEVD
Protocol: The ADP-Glo™ assay (Promega GmbH, Waldorf, Germany) was performed according to the manufacturer’s protocol. […] The reaction mixture was incubated for 1 h at 30 °C. After 5 min re-tempering to room temperature, 5 µL of ADP-Glo reagent was added to the samples to terminate the kinase reaction and deplete the remaining ATP for 40 min at room temperature. Afterward, 10 µL Kinase Detection Reagent was added to convert the generated ADP back to ATP. In that way, synthesized ATP was measured in a luciferase/luciferin reaction. Luminescence was detected with an Infinite M200 Pro (Tecan, Männedorf, Switzerland) in a 384-well microtiter plate (Art. No. 781075, Greiner Bio-One GmbH, Frickenhausen, Germany) after 40 min for 100 µM ATP samples, or 60 min for 1 mM ATP samples. The luminescence intensity of the sample containing only HSP90 was set to 100%, and the luminescence intensities of the other samples were related to it.

S. cerevisiae HSP90 = settings: cited from earlier work
[1] = biological target: T2, C. albicans HSP90–Sba1 binding (Candida albicans, UniProt P46598); experiment: FRET inhibitor screening assay, C. albicans HSP90-Sba1 binding; settings: 10 or 100 µM (Sba1 20 µM), triplicates, 3 mM ATP, 1% DMSO, 15 min 30 °C
T2 construct: made in house; host or cells: E. coli BL21(DE3)
T2 sequence (P46598 whole entry): as above
Text: We used the Z′ factor (Z′) to optimize the FRET assays for screening purposes. Z′ represents a simple statistical parameter for the quality assessment and optimization of HTS assays and screening assays in general. It is a measure that determines the degree of signal separation between binding and non-binding data sets. Calculation of the Z′ factor is based on the standard deviation of the individual data sets as well as their general signal separation. Values ≥ 0.5 can be classified as excellent for screening purposes. […] Consequently, the fluorescence intensity of the donor decreases (FLDD). […] To obtain an informative Z′ value, we calculated it based on at least three independent experiments amounting to 144 samples for both binding and non-binding control data sets (Figure 4B,E). […] We defined the ‘hit threshold’ as a decrease in readout signal of more than 3 standard deviations (SDs) from the mean signal of the binding control. […]
FRET experiments were carried out in 384-well microtiter plates (Art. No. 3766 Corning, NY, USA, or Art. No. 781906, Greiner Bio-One GmbH, Frickenhausen, Germany) containing a final volume of 20 µL and measured with a microplate reader Infinite M200Pro (Tecan, Männedorf, Switzerland). […] Experiments for the determination of the equilibrium dissociation constants were performed with a filter-based microplate reader Infinite F200Pro (Tecan, Männedorf, Switzerland). […]

[2] = biological target: T3, C. albicans HSP90-mNeonGreen–Sba1-mScarlet-I binding (Candida albicans, UniProt P46598, E36A); settings: 20 µM added; 1 µM HSP90-mNeonGreen, 2 µM Sba1-mScarlet-I, 5 mM ATP
T3 construct: made in house; host or cells: E. coli BL21(DE3)
T3 sequence (P46598 whole entry, stated change not applied): as the sequence (P46598 whole entry) above
Protocol: In this investigation, 1 µM HSP90-mNeonGreen was incubated with 2 µM Sba1-mScarlet-I in reaction buffer containing 5 mM ATP either alone (UC) or with the addition of 20 µM Sba1. As a negative control, samples containing 20 µM bovine serum albumin (BSA) were used.
FRET experiments were carried out in 384-well microtiter plates (Art. No. 3766 Corning, NY, USA, or Art. No. 781906, Greiner Bio-One GmbH, Frickenhausen, Germany) containing a final volume of 20 µL and measured with a microplate reader Infinite M200Pro (Tecan, Männedorf, Switzerland). The fluorescence was measured in three channels: excitation (ex.): 488 nm/emission (em.): 525 nm (mNeonGreen fluorescence), ex.: 561 nm/em.: 610 nm (mScarlet-I fluorescence) and the FRET channel ex.: 488 nm/em.: 610 nm. The excitation and emission bandwidths were set to 9 and 20 nm, respectively. Experiments for the determination of the equilibrium dissociation constants were performed with a filter-based microplate reader Infinite F200Pro (Tecan, Männedorf, Switzerland). The fluorescence was measured in three channels using the following filters: ex.: 485 ± 20 nm/em.: 535 ± 20 nm (mNeonGreen channel), ex.: 535 ± 20 nm/em.: 612 ± 10 nm (mScarlet-I channel) and the FRET channel ex.: 485 ± 20 nm/em.: 612 ± 10 nm. […]

Row | Molecule | increase in HSP90 ATPase activity (C. albicans HSP90) [fold] | stimulation in ATPase activity (S. cerevisiae HSP90; up to, 5–10-fold molar excess Aha1/HSP90, ref 32 (Wolmarans et al.)) | hit identification (EmFRET/FLDD decrease of more than 3 SDs from binding control mean) [1] | effect on FRET emission (EmFRET) versus untreated control [2] | ATPase activity, % of initial value in the absence of Sba1 (S. cerevisiae HSP90; decrease to up) [%]
1 | B1 | 7 | ~ 20 fold | – | – | –
2 | B2 | – | – | identified as disrupting; also recorded: identified as hits | significant reduction in FRET emission | 50
